Experimental data published in publication PMC9701394, “Modified exosomal SIRPα variants alleviate white matter injury after intracerebral hemorrhage via microglia/macrophages” (Biomaterials Research, 2022).

Target: T1, biotinylated CD47 (UniProt Q08722 19-141, biotin (by BirA ligase, on the Avi tag))
T1 construct: CD47, IgSF domain; the SPR methods say only 'biotinylated CD47'. 'Purified as described above' would imply a His tag and a cleaved GST; also called CD47 IgSF domain
Test: SPR; biotinylated CD47 (Rmax ~150 RU) captured on Biacore SA sensor chip at 25 °C; serial dilutions of SIRPα in HBS-P buffer; regeneration with 2 mol/L MgCl2; Langmuir binding model, Biacore T200
Settings: both partners purified

T1 sequence (Q08722 19-141): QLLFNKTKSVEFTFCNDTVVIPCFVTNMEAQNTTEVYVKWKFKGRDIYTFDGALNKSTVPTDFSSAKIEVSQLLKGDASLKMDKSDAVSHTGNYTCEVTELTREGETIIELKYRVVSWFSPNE

B1: wild-type SIRPα (SIRPα WT), soluble monomer (domain or fragment, human, UniProt P78324 31-148, looked up)
chain: EEELQVIQPDKSVLVAAGETATLRCTATSLIPVGPIQWFRGAGPGRELIYNQKEGHFPRVTTVSDLTKRNNMDFSIRIGNITPADAGTYYCVKFRKGSPDDVEFKSGAGTELSVRAKP
notes: signal regulatory protein α (SIRPα), human, N-terminal V-set Ig domain; also called wild-type human SIRPα; SIRPα WT monomer; source: E. coli BL-21(DE3), purified (Ni-NTA; GST removed with HRV 3C protease); not shown: GST, N-terminal, cleaved
For B1, the Kd was 365 nM and the “dissociation half-life (t1/2)” value was 2.4 s.
